From patent US20170240635A1 (AGENCY FOR SCIENCE TECHNOLOGY AND RESEARCH, published 2017) come the findings set out here.

The labels stand for the following.
T1: hICOS-Fc (human, UniProt Q9Y6W8)
T1 construct: also called human ICOS
T1 sequence (antigen, looked up): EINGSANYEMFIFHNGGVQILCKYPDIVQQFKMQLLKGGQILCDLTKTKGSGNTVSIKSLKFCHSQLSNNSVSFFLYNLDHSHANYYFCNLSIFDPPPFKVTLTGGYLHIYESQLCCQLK

T2: human LAG-3 coupled to human Fc (human, UniProt P18627 23-450, limits assumed)
T2 construct: ELISA coating antigen; not shown: human Fc
T2 sequence (looked up): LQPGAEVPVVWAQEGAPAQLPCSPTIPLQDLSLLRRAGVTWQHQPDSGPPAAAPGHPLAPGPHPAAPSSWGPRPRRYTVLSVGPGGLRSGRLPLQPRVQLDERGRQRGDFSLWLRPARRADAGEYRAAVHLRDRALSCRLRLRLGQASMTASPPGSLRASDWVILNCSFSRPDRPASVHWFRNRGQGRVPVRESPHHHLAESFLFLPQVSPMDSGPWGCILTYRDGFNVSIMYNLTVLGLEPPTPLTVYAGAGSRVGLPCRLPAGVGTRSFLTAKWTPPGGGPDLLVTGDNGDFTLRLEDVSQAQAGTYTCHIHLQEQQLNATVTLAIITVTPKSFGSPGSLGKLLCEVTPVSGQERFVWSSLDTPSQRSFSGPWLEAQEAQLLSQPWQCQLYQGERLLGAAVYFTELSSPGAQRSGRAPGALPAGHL

B1: anti-PD-1 antibody clone A10 (Fab) (Fab, V domains shown)
VH: QVQLVQSGGGVVQPGRSLRLSCAASGFTFSSYGMHWVRQAPGKGLEWVAVISYDGSNKYYADSVKGRFTISRDNSKNTLYLQMNSLRAEDTAVYYCASDLGAGPYYYGKDVWGQGTTVTVSS
VL: LPVLTQPPSASGTPGQRVTISCSGSSSNIKFNSVNWYQQLPGTAPKLLIYSNNQRPSGVPDRFSGSKSGTSASLAISGLQSEDEADYFCASWDDYYYGTIFGGGTKLTVL
notes: Crude Fab extract in SPR
B2: anti-PD-1 antibody clone G10 (Fab) (Fab, V domains shown)
VH: B1 VH with Q6E, L100Y, K109M
VL: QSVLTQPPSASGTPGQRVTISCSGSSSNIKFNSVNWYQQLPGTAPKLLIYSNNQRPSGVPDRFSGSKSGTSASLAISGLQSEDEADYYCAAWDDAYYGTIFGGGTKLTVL
notes: Crude Fab extract in SPR
B3: anti-PD-1 antibody clone B6 (Fab) (Fab, V domains shown)
VH: B1 VH with Q6E, L100Y, K109M
VL: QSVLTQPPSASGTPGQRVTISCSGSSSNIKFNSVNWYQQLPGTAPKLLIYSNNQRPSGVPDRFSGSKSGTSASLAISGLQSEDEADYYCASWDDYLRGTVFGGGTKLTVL
notes: Crude Fab extract in SPR
B4: anti-PD-1 antibody clone F2 (Fab) (Fab, V domains shown)
VH: B1 VH with Q6E, K109M
VL: B1 VL with L1Q, P2S, F88Y, A90S, Y95D, Y96A, Y97R
notes: Crude Fab extract in SPR
B5: anti-PD-1 antibody clone C4 (Fab) (Fab, V domains shown)
VH: B1 VH with Q6E, K109L
VL: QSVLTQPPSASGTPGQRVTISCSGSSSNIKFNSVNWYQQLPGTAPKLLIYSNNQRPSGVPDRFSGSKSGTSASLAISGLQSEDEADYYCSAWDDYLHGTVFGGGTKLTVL
notes: Crude Fab extract in SPR
B6: anti-PD-1 antibody clone H4 (Fab) (Fab, V domains shown)
VH: B1 VH with Q6E, A102S, P104Y, Y106L, K109M
VL: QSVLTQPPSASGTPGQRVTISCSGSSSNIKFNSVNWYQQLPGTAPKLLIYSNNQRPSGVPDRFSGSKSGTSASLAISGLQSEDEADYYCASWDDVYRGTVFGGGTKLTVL
notes: Crude Fab extract in SPR
B7: anti-PD-1 antibody clone E1 (Fab) (Fab, V domains shown)
VH: B1 VH with Q6E, K109M
VL: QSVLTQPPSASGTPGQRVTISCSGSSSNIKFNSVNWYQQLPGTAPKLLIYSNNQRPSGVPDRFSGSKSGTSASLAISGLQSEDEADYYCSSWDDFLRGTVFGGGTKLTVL
notes: Crude Fab extract in SPR
B8: anti-PD-1 antibody clone D4 (Fab) (Fab, V domains shown)
VH: B1 VH with Q6E, K109M
VL: B1 VL with L1Q, P2S, F88Y, Y96V, Y97R, I100M
notes: Crude Fab extract in SPR
B9: anti-PD-1 antibody clone G1 (Fab) (Fab, V domains shown)
VH: B1 VH with Q6E, K109M
VL: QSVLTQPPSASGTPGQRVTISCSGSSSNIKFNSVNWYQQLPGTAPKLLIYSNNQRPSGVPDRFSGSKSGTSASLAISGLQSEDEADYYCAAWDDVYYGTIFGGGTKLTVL
notes: Crude Fab extract in SPR

Residue numbers refer to the chain shown, from its start.

T4 sequence (P16410 37-162 limits assumed): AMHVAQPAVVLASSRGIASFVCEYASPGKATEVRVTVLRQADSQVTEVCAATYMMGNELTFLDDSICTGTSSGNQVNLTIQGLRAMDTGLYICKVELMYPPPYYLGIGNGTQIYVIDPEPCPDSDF
T8 sequence (Q7Z6A9 31-150 limits assumed): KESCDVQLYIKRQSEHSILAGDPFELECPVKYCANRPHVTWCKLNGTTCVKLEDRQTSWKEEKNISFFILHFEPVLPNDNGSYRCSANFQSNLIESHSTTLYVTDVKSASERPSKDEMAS
T5 sequence (Q8VIM0 20-191 limits assumed): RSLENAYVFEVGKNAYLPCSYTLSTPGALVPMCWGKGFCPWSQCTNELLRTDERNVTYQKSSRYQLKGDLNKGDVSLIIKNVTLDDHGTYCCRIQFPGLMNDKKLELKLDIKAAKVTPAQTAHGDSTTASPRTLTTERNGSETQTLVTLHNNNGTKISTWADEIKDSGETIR

One assay deals with T3, human PD-1 coupled to human Fc (human, UniProt Q15116 25-167, limits assumed).
T3 construct: also called human-PD-1 coupled to Fc; not shown: human Fc
T3 sequence (Q15116 25-167 limits assumed): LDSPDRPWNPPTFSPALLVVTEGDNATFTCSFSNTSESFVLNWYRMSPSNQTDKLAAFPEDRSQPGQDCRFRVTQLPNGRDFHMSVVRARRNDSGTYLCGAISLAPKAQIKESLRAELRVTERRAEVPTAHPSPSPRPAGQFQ
Put plainly: SPR (ProteOn XPR36); human PD-1-Fc immobilised, crude Fab extract flown over. The protocol: Briefly, human or mouse PD-1 coupled to human Fc was immobilised on a sensor chip compatible with the Proteon XPR36 bioanalyser (Biorad). Crude Fab extracts (or the control antibodies) were then flown onto the chip and the association/dissociation of each candidate Fab was then recorded and analysed, the affinity (KD) was calculated.
With B1, the Kd is 0.08 nM.
On to B2, for which the Kd was determined as 0.27 nM.
Same read-out and setting: next, B3: 0.26 nM; B4: 0.11 nM.
Regarding B5, the Kd was determined as 0.4 nM.
Still for that read-out and setting: next, B6: 0.27 nM; B7: 0.21 nM.
Regarding B8, binding was put at a Kd of 0.22 nM. This Kd and that of the molecule before are within 1.5-fold of each other.
Still for that read-out and setting: then B9, with 0.1 nM.

A further assay addresses T4, hCTLA4-Fc (human, UniProt P16410).
T4 construct: also called human CTLA-4; human CTLA4
Put plainly: ELISA; antigen coated 350 ng/well, goat anti-human Fab-HRP, absorbance 450-670 nm. The protocol:
(§1) Anti-PD-1 antibodies were tested in an ELISA assay for their ability to bind to other members of the CD28 family.
(§2) Briefly, ELISA plates were coated with 350 ng/well of one of the following antigens coupled to human Fc in carbonate buffer: human PD-1, human PD-L1, human TIM-3, human LAG-3, human ICOS, human CTLA4, human BTLA, human CD28, mouse TIM-3, or rhesus PD-1. The plate was then blocked with a solution of casein. After extensive washes in PBS Tween-20, antibodies were added into the ELISA wells in the presence of 7% milk in PBS. After 90 minutes at room temperature under agitation and extensive washes, a goat anti-human Fab antibody coupled to HRP was added. One hour later, plates were washed and TMB substrate added. The reaction was stopped with 1M HCl and optical density measured at 450 nm with a reference at 670 nm.
For orientation: In an ELISA, binding on a coated surface is turned into a signal by an enzyme label.
In the case of B1, the binding result is “no binding (tested: not given)”.
Regarding B4, the binding result is reported as “no binding (tested: not given)”.
Still for that read-out and setting: next, B6: “no binding (tested: not given)”.
Still for that read-out and setting: next, B9: “no binding (tested: not given)”.

The next assay deals with T1, hICOS-Fc. The assay is described as above. The procedure: as §1, §2
Consider B1, for which the binding result is recorded as “no binding (tested: not given)”.
Still for that read-out and setting: next, B2: “no binding (tested: not given)”; B3: “no binding (tested: not given)”; B4: “no binding (tested: not given)”.
As to B5, the binding result is “no binding (tested: not given)”.
For B6, the binding result is on record as “no binding (tested: not given)”.
For B7, the binding result was “no binding (tested: not given)”.
B8: the binding result is on record as “no binding (tested: not given)”.
Same read-out and setting: next, B9: “no binding (tested: not given)”.

The next assay concerns the target T5, mTim3-Fc (mouse, UniProt Q8VIM0).
T5 construct: also called mouse TIM-3
The assay is described as above. The procedure:
as §1, §2
With B1, the binding result was “no binding (tested: not given)”.
As to B2, the binding result is reported as “no binding (tested: not given)”.
Turning to B3, the binding result is given as “no binding (tested: not given)”.
Still for that read-out and setting: next, B4: “no binding (tested: not given)”.
On the same count and under the same terms, then B5, with “no binding (tested: not given)”.
On the same count and under the same terms, then B6, with “no binding (tested: not given)”; and B7, with “no binding (tested: not given)”.
Turning to B8, the binding result is recorded as “no binding (tested: not given)”.
With B9, the binding result is reported as “no binding (tested: not given)”.

The next assay deals with T6, human PD-L1 coupled to human Fc (human, UniProt Q9NZQ7 19-239, limits assumed).
T6 construct: ELISA coating antigen; not shown: human Fc
T6 sequence (Q9NZQ7 19-239 limits assumed): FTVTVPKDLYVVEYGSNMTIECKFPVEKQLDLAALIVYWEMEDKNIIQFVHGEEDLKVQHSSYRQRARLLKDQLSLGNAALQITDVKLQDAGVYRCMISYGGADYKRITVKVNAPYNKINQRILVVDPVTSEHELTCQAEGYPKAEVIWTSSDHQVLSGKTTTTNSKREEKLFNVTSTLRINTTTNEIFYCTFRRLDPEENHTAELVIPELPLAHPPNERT
Described as above. The procedure:
as §1, §2
As to B1, the binding result is on record as “no binding (tested: not given)”.
The same measure, in the same setting: next, B2: “no binding (tested: not given)”.
For the molecule B3, the binding result is reported as “no binding (tested: not given)”.
On the same count and under the same terms, then B4, with “no binding (tested: not given)”; and B5, with “no binding (tested: not given)”; and B6, with “no binding (tested: not given)”.
Take B7: the binding result is listed as “no binding (tested: not given)”.
Still for that read-out and setting: then B8, with “no binding (tested: not given)”; and B9, with “no binding (tested: not given)”.

For another assay, the target named is T7, human TIM-3 coupled to human Fc (human, UniProt Q8TDQ0 22-200, limits assumed).
T7 construct: not shown: human Fc
The description is as above. The procedure: as §1, §2
Turning to B1, the binding result was “no binding (tested: not given)”.
Consider B2, for which the binding result was “no binding (tested: not given)”.
Still for that read-out and setting: next, B3: “no binding (tested: not given)”.
With B4, the binding result is listed as “no binding (tested: not given)”.
With B5, the binding result is recorded as “no binding (tested: not given)”.
B6: the binding result is “no binding (tested: not given)”.
Still for that read-out and setting: then B7, with “no binding (tested: not given)”; and B8, with “no binding (tested: not given)”; and B9, with “no binding (tested: not given)”.

The next assay concerns the target T2, human LAG-3 coupled to human Fc. The assay is described as above. The procedure:
as §1, §2
On to B1, for which the binding result is given as “no binding (tested: not given)”.
Same read-out and setting: then B2, with “no binding (tested: not given)”; and B3, with “no binding (tested: not given)”; and B4, with “no binding (tested: not given)”.
With B5, the binding result was “no binding (tested: not given)”.
The same measure, in the same setting: next, B6: “no binding (tested: not given)”; B7: “no binding (tested: not given)”.
Same read-out and setting: next, B8: “no binding (tested: not given)”.
On the same count and under the same terms, then B9, with “no binding (tested: not given)”.

Another assay has as its target T8, human BTLA coupled to human Fc (human, UniProt Q7Z6A9 31-150, limits assumed).
T8 construct: ELISA coating antigen; not shown: human Fc
The description is as above. The protocol:
as §1, §2
Consider B1, for which the binding result was “no binding (tested: not given)”.
Take B2: the binding result was “no binding (tested: not given)”.
Regarding B3, the binding result is listed as “no binding (tested: not given)”.
On the same count and under the same terms, next, B4: “no binding (tested: not given)”; B5: “no binding (tested: not given)”; B6: “no binding (tested: not given)”.
Regarding B7, the binding result is given as “no binding (tested: not given)”.
Same read-out and setting: next, B8: “no binding (tested: not given)”; B9: “no binding (tested: not given)”.

Another assay has as its target T9, human CD28 coupled to human Fc (human, UniProt P10747 19-152, limits assumed).
T9 construct: ELISA coating antigen; not shown: human Fc
The assay is described as above. The protocol:
as §1, §2
On to B1, for which the binding result is recorded as “no binding (tested: not given)”.
On the same count and under the same terms, next, B2: “no binding (tested: not given)”.
The same measure, in the same setting: then B3, with “no binding (tested: not given)”; and B4, with “no binding (tested: not given)”.
As to B5, the binding result is listed as “no binding (tested: not given)”.
In the case of B6, the binding result was “no binding (tested: not given)”.
As to B7, the binding result was “no binding (tested: not given)”.
Same read-out and setting: next, B8: “no binding (tested: not given)”; B9: “no binding (tested: not given)”.

For another assay, the target named is T4, hCTLA4-Fc. Put plainly: ELISA; antigen coated 350 ng/well, Fab-containing supernatant, goat anti-human Fab-HRP, absorbance 450-670 nm.
As for B2, the binding result is “no binding (tested: not given)”.
With B3, the binding result is “no binding (tested: not given)”.
With B5, the binding result is recorded as “no binding (tested: not given)”.
Turning to B7, the binding result is “no binding (tested: not given)”.
Same read-out and setting: next, B8: “no binding (tested: not given)”.

By Kd is commonly meant the constant that tells how readily two partners part at equilibrium. A low value points to a tighter complex.
